# Experiment: soluble on expression in E. coli; label from the status in PepcDB or PDB records
row,Sequence,soluble on expression in E. coli
1,MGSDKIHHHHHHVILKAKVYHKVFAFKDLKEVLAKANEEKSGDVLAGIGATSASERVAAKLVLSNLTLEDLYNHPVLPYEEDEVTRVIYDGLNLRIYQEMKGWTVGQLREYILDHGTTGSHLNHISRGLTSEMIAAVAKLMSNMDLVYGSKKMRHQAHCNTTIGIPGTLAFRCQPNHPTDSVEGVMASLKEGLSYGSGDAVIGINPVEDNVDTLSRLLETVKEFMQQWEIPTQNCVLAHITTQMKAITKGVPIDLVFQSIAGTQKANEAFGISKELIDEAFALIQRNGTATGPNLMYFETGQGSEISLAAHHGVDMMTLESRTYGFGRHYRPFLLNNVSGFIGPETIYSGREVIRADLEDLFMGKLHGLPMGIAPCYTNHMKADQNDQEIATLLCAMAGANYFMGLPGGDDVMLSYQDTSYHDDAATREILGLRPLPEFEKWLEKMGIMENGQLTERAGDPSVFDK,not soluble
2,MGSDKIHHHHHHVKKQVPDKTELGRTRVLVVGDVMLDRYWFGAVERISPEAPVPVVRVTREEERLGGAANVALNVKSLGARATLLTVVGDDEPAHTLKRLLERDGIDTLLGSDPQLYTIVKLRVIGRSQQLIRIDFENQPDHEVLAEMLQDYETTLAEQDAVLFSDYGKGGLEHIPRMIELARRSGKPVLVDPKGSDYRRYAGASVITPNRAELAQVVGAWSSEAQLRERAQALRVELGLEALLLTRSEEGMTLFDARGDTSVPAQAREVFDVTGAGDTVIATMAAMIACGLSPREAMPLANRAGSIVVGKFGTASVSYDELFE,not soluble
3,MGSDKIHHHHHHVLPHQNLSILIFFFTLDKDHFGNEMKNMYSHIIVGAGILGTSTAYHLAKQGANVLLVDRKEAGRATHVAAGIICPWMTQRRNKAWYRLANNGAHYYDKLIPELEALGETTTGYQKVGTIALHETSKIEKMQMIAENRFPEAPAIQRIERLTADQVRSMFPLIEFVEDALFVSGGARVDGRALRAAMERGAIKHAATILEADASLVVVDGHVQGVQIGQDIHYADQVILTAGVWVNELLEPLQTKLDIRAEKGQILHLDISNDQSKEWPVIMGQRGLYLVSIEDGKLALGSTHEKQLDYNLQPTVKGMYALLTRAIPVAPALEEANINEMRVGLRPYTSNSLPVIGRLANHPNVLIANGLGASGLTIGPYLGQELAKLALDQELEIDLNDYLLQ,not soluble
4,MGSDKIHHHHHHVPSACRLSTCRFQDVCLSQIAAYWPARFTRTSEGVGKMAEMVTIKEADLIESVADALQYISYFHPMDYIRALGEAYKAEQGPAAKDAIAQILTNSRMCAEGHRPICQDTGIVNVFIEWGQDCRLESDLSLQDVVDEGVRRAYNNPDNKLRASVLADPAFTRRNTRDNTPCVLHVEMVKGNKVTVDVAAKGGGSENKSKFKMMNPSDSIVDWVIEMLPQMGAGWCPPGMLGIGIGGTAEHCVLLAKKALMEPIDMAQLKQRGPQTDIERLRIEIFDKVNALGIGAQGLGGLSTILDVKIMDAPCHAAGKPVAMIPNCAATRHAHFTLDGSGPTFLERPKLDEWPEVHWAPDSAARRVDLDTLTQEEVQSWKAGDRLLLNGKMLTGRDAAHKRIKDMLAKGEELPVDFKGRVIYYVGPVDPVRDEVVGPAGPTTATRMDSFSDTMLDLGLLASVGKAERGPAATQSIANHKSAYLMAVGGAAYLVARAIKEAKVVGFEDLGMEAIYEFTVEDMPVTVAVDSGGQNVHQLAPLVWKKKIAEEHLLPA,not soluble
5,MGSDKIHHHHHHVQLSENVLLLGNRHFNYFLVGKKEAAIIECGVSGGVYSFQKQWEKLPQKPEVKYLVAMHAHFDHVCGIPALQKMFPAAVLLASSPAEAVLKKAKIMENFFAQDEKMLDLLADEGIIPRGLQSPNVTEIALDKLIAEGDEIKLGGDLNIKVLDAPGHSPCSLACYLPAEQVMFISDACGFQISDEDIFPVFFQAYDIYLETIKRLMSYPSKLLAIPHERIWTGRNIDAFYRRALSSAEQAFNIIRDLLDQGWEDEKIEKELFARYYKGSLKIYTPENIQQCVQILLRRVKEKL,not soluble
6,MGSDKIHHHHHHVTILSPKAVPAPAASDAYGFGDRLTADFPSQINVDVTEVCNLACVHCPHPQFKKSVHYAGRMLDPALNDKMVEEVRDHGQGRVGYIRYTAAGEPMAHPAIFPMLAKAVARSGTTVSLTTNGMLLDEGRRARLLETGIHLIDISIDAFLPETYARVRVGGDLERVRGGVLRLMEGAARRVDPPKIVVSFVEQPFNQGETADFERFWKENGAAYVVIRRLHSCAGAAQDLAATLRVEQGETRRPCLYPWERIVLNPSGQLSFCPADWAHGAAIAEYRDTTIREVWQGPFYRALREAHLTNSYANHGFCGQCPDWASTRWPKQGRSYADMVQDFKETE,not soluble
7,MGSDKIHHHHHHVTVSAFVLLLCRRAIVTLDSTPAFSTDPELICFSSRFQDEMEMYAPAEVVAHYLDRHEEWFRRCAEPMATTSIGKDAYAIVLGRYGSLGFEVEPQIGLELLPADQGVYRICTVPVPGYESQGYQVDFQASLSLDRLTHETEAPVTEATAVAWDLLLTVGIRLPRFIHVLPQKLVHSTGDHLLRQIVRQTSRRLTHRVQEDFHQQLNLPLPPRRHARF,not soluble
8,MGSDKIHHHHHHVTYGDNVKPINDALLTEFPKEKRYLVYDKKFVKNPEAWSAEYALPYRRLRFIRLAYLLATSKHLFIDNYIGEYSVAPIRQGTKRIQLWHAAGTLKKFGLTSSRSLMVPKHVLRRFKRVYQRYGDFIVPGEACAKQFMAPHDLHRTVFKTLGVPRTDYWFNEQHQTVKKQLSDIYVKPKRRILLYAPTYREYNGMEGQTVRQLEQLTDQGWTILVKLHPTVRSMFTHQKAHVHFVTDEYSINDYLLITDVLVTDYSSIPFESCLLGVPTVLYTPDIDTYRQIPGIIDSYPDPLPVTCTDQFEIMLNWINSDVSLQESRMAMEQFKTIWYTEQPGQATRRIVDHYYRKVR,not soluble
9,MGSDKIHHHHHHYLPDDEPKKLIVNAMMQTENNDNRIYLHYTGWTATTPVTDGIIHLYINGKLSETITAEDDYYPVKSIFRTGDKVKIEASSENGKYKAKAETRISAPLQIINVDTTYISLRDYNSWVGGKPVYDNYLRLNIQLKQPDIEAENTYYRLEIKQIFYSHKWHDGRDTLSIDTTYNYNYIYDTALTDGKPGHAIDEGFELIQKWNNYFGLFKSCYFKNREYNMTIDLKEDINYIHIDSQKAERYISIRFYSISESEHRYLYAMSSALDFDAENFIYAVPLIPNNIKGGIGIFSIANQVKYKLKEENCQDRY,not soluble
10,MGSEILVGIGEFRVAKGAVLKTIGLGSCVGIALYDPKLRLGGLAHVMLPQSGNGTKRSAKYADHAVEMMTEAMERLGSDRKRIVAKMAGGAQIFKHMTMDMLRIGDRNAEAIRTILRDYGIRIVSEDLGGDEGRTVYFFTNDGRMLVKYSRGGELWI,soluble
11,MGSELLDLSFLSEEEKDLILSVLQRDEEVRKADEKRIRRLKNELLEIKRKGAKRGSQHYSDRTCARCQESLGRLSPKTNTCRGCNHLVCRDCRIQESNGTWRCKVCAKEIEMKKATGDWFYDQKVNRFAYRTGSEIIRMSLRHKPAVSKR,soluble
12,MGSGEPNPAGKKKKYLKAALYVGDLDPDVTEDMLYKKFRPAGPLRFTRICRDPVTRSPLGYGYVNFRFPADAEWALNTMNFDLINGKPFRLMWSQPDDRLRKSGVGNIFIKNLDKSIDNRALFYLFSAFGNILSCKVVCDDNGSKGYAYVHFDSLAAANRAIWHMNGVRLNNRQVYVGRFKFPEERAAEVRTRDRATFTNVFVKNIGDDIDDEKLKELFCEYGPTESVKVIRDASGKSKGFGFVRYETHEAAQKAVLDLHGKSIDGKVLYVGRAQKKIERLAELRRRFERLRLKEKSRPPGVPIYIKNLDETINDEKLKEEFSSFGSISRAKVMMEVGQGKGFGVVCFSSFEEATKAVDEMNGRIVGSKPLHVTLGQARRRC,soluble
13,MGSITENTSWNKEFSAEAVNGVFVLCKSSSKSCATNDLARASKEYLPASTFKIPNAIIGLETGVIKNEHQVFKWDGKPRAMKQWERDLTLRGAIQVSAVPVFQQIAREVGEVRMQKYLKKFSYGNQNISGGIDKFALEGQLRISAVNQVEFLESLYLNKLSASKENQLIVKEALVTEAAPEYLVHSKTGFSGVGTESNPGVAWWVGWVEKETEVYFFAFNMDIDNESKLPLRKSIPTKIMESEGIIGG,soluble
14,MGSNPPASPLQDNLVIALHSYEPSHDGDLGFEKGEQLRILEQSGEWWKAQSLTTGQEGFIPFNFVAKANSLEPEPWFFKNLSRKDAERQLLAPGNTHGSFLIRESESTAGSFSLSVRDFDQNQGEVVKHYKIRNLDNGGFYISPRITFPGLHELVRHYTNASDGLCTRLSRPCQT,soluble
15,MGSQFLLSVREFMQTRYYAKKTIEAYLHWITRYIHFHNKKHPSLMGDKEVEEFLTYLAVQGKVATKTQSLALNSLSFLYKEILKTPLSLEIRFQRSQLERKLPVVLTRDEIRRLLEIVDPKHQLPIKLLYGSGLRLMECMRLRVQDIDFDYGAIRIWQGKGGKNRTVTLAKELYPHLKEQIALAKRYYDRDLHQKNYGGVWLPTALKEKYPNAPYEFRWHYLFPSFQLSLDPESDVMRRHHMNETVLQKAVRRSAQEAGIEKTVTCHTLRHSFATHLLEVGADIRTVQEQLGHTDVKTTQIYTHVLDRGASGVLSPLSRL,soluble
16,MGSSHHHHHHGKTIFVIVPTNEEQVAFLEALAKQDELNFDWQNPPTEPGQPVVILIPSDMVEWFLEMLKAKGIPFTVYVEEGGSENLYFQGGGGGGMPPPLPHRRATRACALVAAVALVLVLPTSRARTVGMRSMSAYTEAQQLHTRKFLDGFVQSMPDLHNIWTGDDFCAWKGVTCLRDGVSVSATNWVQLAVPPGRLPEVSSADVDVSQVFVTSISVRANGRNLSGTLPASWGLLQNLRKVRLESNSLTGSLPPEWSGLRSLRELYLSNNNLTGTLPASWGESMKSLAILSLDRNALAGTLPPEWGRMKSMQALVLESNQLSGTLPAEWRFMRAASTLMIGRNYLSGTLPHEWAEMSVMEWMDLHSNRLTGWLPAAWATMTLLNTLLLFDNGFTGTLPTEWARLEFLEELRMQDNVLVGTLPASWSAMVLMQVLDISENTLSGTLPVLWSSMQSLDTLSIRDNQLSGSLPIEWRTLPKIMHLHLEGNALCGCLPLNWTSRYVAVEVDEAVTSVNCATENACNDVNLDSISDKISSSCSSSTSPNGGRRR,not soluble
17,MGSSHHHHHHGKTIFVIVPTNEEQVAFLEALAKQDELNFDWQNPPTEPGQPVVILIPSDMVEWFLEMLKAKGIPFTVYVEEGGSENLYFQGGGGGGRRLFLLLAWQPSFAKHLSELEPVPQRAPVEKRRRQHIPLSLQAREELSRKSNELQYHVVTQDWFGQRVDDFVTQHHPEWDYETVKRLVQQGHIYRYRKNGKKRYTRLTDRLEFDELVVVPTASFWERQLAPPSGVELQSSSTSQQQERRQKFHLSAKTREMAQEMVLFKNEHVIVINKPSGVPIMPTHDPLAMNITDLLPAWRYTNTQTPVICHNLDTETSGCVVLARSANTHRMLGRMFVKRVVPNSVYWGFAVGKPPVNFGRIRMHFEVQKGQGGDVIVARPTPTADSKVGIAEFVVNASALEFGSFISFYPLTTRRHQERIMAAHALRAPLLGDAKYGGESAFPHSLSLFWDPARKDVPLHLHHRKIQLPYKNGAGEFVCVTAPLPPHMEKTFKRLGWPVDADDPLIPG,not soluble
18,MGSSHHHHHHSQDMDKNELVQKAKLAEQAERYDDMAACMKSVTEQGAELSNEERNLLSVAYKNVVGARRSSWRVVSSIEQKTEGAEKKQQMAREYREKIETELRDICNDVLSLLEKFLIPNASQAESKVFYLKMKGDYYRYLAEVAAGDDKKGIVDQSQQAYQEAFEISKKEMQPTHPIRLGLALNFSVFYYEILNSPEKACSLAKTAFDEAIAELDTLSEESYKDSTLIMQLLRDNLTLWTSDTQGDEAEAGEGGEN,soluble
